From the DeepSol protein solubility set

Assay: soluble on expression in E. coli; label from the status in PepcDB or PDB records

Soluble on expression in E. coli, not soluble:
MGSDKIHHHHHHMKWSEYANLAQQSLEKFYLADTKEQFLNNFYPTENPEEDNKVFNYWWLAHLVEVRLDAYLRTKKQADLEVAEKTYLHNKNRNGGTLIHDFYDDMLWNALAAYRLYKATGKSIYLEDAQLVWQDLVDTGWNDIMGGGFAWRRPQMYYKNTPVNAPFIILSCWLYNELNETKYLEWAMKTYEWQTKVLVREDGFVEDGINRLEDGTIDYEWKFTYNQGVYIGANLELYRITKEAKYLDTANKTAAISLKELTEDGIFKDEGNGGDEGLFKGIFYRYFTDLIEETANKTYRDFVLNSCQILVENAKLDGYLLMGMNWKEKPSGKIPYSAELSGMIALEMAAKLE, MGSDKIHHHHHHMKYDVVVIGAGGAGYHGAFRLAKAKYNVLMADPKGELGGNCLYSGCVPSKTVREVIQTAWRLTNIANVKIPLDFSTVQDRKDYVQELRFKQHKRNMSQYETLTFYKGYVKIKDPTHVIVKTDEGKEIEAETRYMIIASGAETAKLRLPGVEYCLTSDDIFGYKTSFRKLPQDMVIIGAGYIGLEIASIFRLMGVQTHIIEMLDRALITLEDQDIVNTLLSILKLNIKFNSPVTEVKKIKDDEYEVIYSTKDGSKKSIFTNSVVLAAGRRPVIPEGAREIGLSISKTGIVVDETMKTNIPNVFATGDANGLAPYYHAAVRMSIAAANNIMANGMPVDYVDVKSIPVTIYTIPSLSYVGILPSKARKMGIEIVEAEYNMEEDVSAQIYGQKEGVLKLIFERGSMRLIGAWMIGVHSQYLINELGLAVAYGLNAKQLASFAEQHPSTNEIISYTARKVI, MGSDKIHHHHHHMKYMIGIDGGGTKTEAIAFDKDGNELVRATSGFGNILIDFEEALVHIMEAIDQCQKGVLNEHCVCICLGLAGVSGVNTNELTLRLKKKYGTPIEVFNDAMIAHAAVLKGKDGILTIGGTGTICLGKKGEVYEYSGGWGHILGDAGSGYWIGLQALKRMANQLDQGIRLCPLSLRIQDEFQLLTASHIKRLVYRSSKDKVAAITPFVIREARNGNDAAHEIMMQAGKELARITIDVYNKMQLDLLVSIAVSGSILRFVPEIYDEFKKCCEKSVGEVTFVLQSEPAVKGTYYLMKNMYFKK, MGSDKIHHHHHHMLAEERQQMIAHYVDEHQICRVTELCRLTSTSESTIRRDLSEMEDRGLLKRVHGGAQSLQTFGQDVAQQIRFNLNKDDKLAIARLAARKVHPHDYLFLDAGTTIYEMVPFLKEISGLHVVTNGLETALALTDAGIDCCLLGGHVKRQTHAAIGATTVSRLQELNFNAAFIGANALSPAGFLTTPDTEEAAVKRTAIQQSQQAFVLIDRSKFNAVTFAEFAKTDQVTIISRLEAGDREKLPVNIQLEEAE, MGSDKIHHHHHHMLAIIKQFFAKSHGTTVSDSRFLALNHWLSNTFGEPLSPVLISGDASFRRYFRAVHQGRAMVIMDTPVALIPTEPFVAVRNAYAASGLPVPGIIAKDDEQGFMALEDFGDVQLLSLLNSQSVRHWYPRALALLPGIAAVTQTVLGPLPDYDDAFVRRELGIFTEWLLGTHLKLELTSDEEAIIADAFDMLTQNALEQPKVGMHRDFHSRNLMVVDGELKLLDFQDAVLGPVTYDAVSLLRDCYIRWSEDLVDDMLVEFFVLAHEHALVPPHTDMVQFRRWFELMGLQRHIKAAGIFARLNHRDGKAGYLKDIPLTMHYIRDVAVRYKELGDFAQFIMRRVMPALEAGA, MGSDKIHHHHHHMLDDIKKTLWAAADKLRANVDAAEYKHLVLGLIFLKFVSDTFAARRAELERRFVDVNDDYFLHDADADFIAEELEERDYYIEVNVFWVPEPARWEGLRANAKQANIGKQIDDALDAIEKENPSLKGILDKRYARAPLPDGKLGELVDLISTIGFGEDQSKARDILGQVYEYFLGQFASAEGKKGGQFYTPQSIVNTLVAVLDPHQGKVYDPCCGSGGMFVQSEKFIEAHGGKLGDVSIYGQESNPTTWRLAAMNLAIRGIDFNLGREPGDTFTKNQHSDLRADYILANPPFNISDWWHGSLEGDPRWVYGNPPQGNANYAWLQHMLYHLKPTGRAGIVLANGSMSSSQNTEGDIRRAMVDADVVEVMVALPGQLFFNTQIPACLWFLTKQKTARKGEVLFIDARKLGKMISRVQSELDQAAIDRIANTAKAWRGEDMTGVEGFEDGYQDIPGFCRSVPLSEIAEHGHVLTPGRYVGAEEVEDCDDAFADKMTMLTEKLAEQMAKGAELDQLIRQKLGGLGYEF, MGSDKIHHHHHHMLEFVNVSKSFWTGTQRKIILDKVSFTVELGTSLGILAPNGTGKTTLINMMAGLEKPDEGEIYRGCKISFPLGFMGGVINRLSAMENCRYIARLYGLDPDYVESYCRWLCGLNEYFDQPLGTYSAGMKSRFSFALMLALDFDIYLIDEGMPSSTDVEFNRKAGIILQERLETTTIVIVSHQPRTLEKFANTAAVLMNGQLHMFETLEEAKQLYDYETQG, MGSDKIHHHHHHMLEQKINVDNTALFEQLWGWTNELREKIDARFELHSDPSTENFKKYSALIGEAHGSVNTFSGPEIDWLVHSWLREPKSGFCNMHLTVWLKSQIHVPHLAIVFATVPELFFFIDYVSRTDLFTDLDYLDRYYEPVNQTYLAFLKDSRFQQYISKTLYIRQVQSHTSLCYTSPVTEETLARIHTLAHEMIDRWLGWVDEAEPVAESERDALSERDLFVRRTVAERDPDNQIAVRLFGAEMTDKLVRSLWGGDRIL, MGSDKIHHHHHHMLEVPVDRPVEALTIALLRDVKHACAQLGAKFVLAGATARDILMWHLHDIRAPVATRDVDVAVCAVSWESHDALIELLVQTQRFRRHSKQQQKLLFKRSAEDYEGELDIVPFGQIEGPPGEIHWPPDGDIVMTVLGFQEAVDTAQPVSIGEGLVVPVVTLPAFVLLKLIAWKDRRLMKNTDSADLLFVLRNYIDAGNIERTYEQATDLLKAANFDAGLAAAGLLGRDVRGLAYPDTRAALRALLQSADAYETLRLDLQARAAMLLGGFIDDSDALLAAFARELLTEENGSLNGTGPQVGSTGARA, MGSDKIHHHHHHMLGVCYYPEHWGTEKVEEDFRRMKELGIEYVRIGEFAWSRIESERGKFNWDWLDKTLELAEKMGLKIVLGTPTATPPKWLIDEHPEILPVDKDGRVKNFGSRRHYCFSSPVYREEVKRIVTIIVKRYGKHPAVAGWQTDNEYGCHDTVRCYCPRCKKAFQKWLERKYEGDIKKLNEAWGTVFWSQEYRSFDEIELPNLTPADPNPSHLLDYYRLASDQVVEFNKLQVEIIREYSPGRFITHNFMSGFTDFDHYKLSKDLDFATWDNYPLGHTLVFLRMKGETKNPFDRVGHPDIISFSHDLYRGVGRGRFWVMEQQAGPVNWAPYNLWPAKGAVRLWTWQAFAHGAEVVSYFRWRQAPFAQEQMHSGLLAPDSAPYPGYHEVKQVFEELKNIDINEPVESEVALVFDYETAWVFSIQPHGEGVNYIDLVFRFYSALRRLGLNVDIVPPGSSLDGYKMIVVPSLAIVKEEVLDTFKKYDGLLVLGPRSGSKTETFQIPPEMPPGLLKEIIPVEVRQVESLGDNVETLVWNGKEYPVSIWREDVDPTITEVIARFKDGFGAIFRKENVFYLAFWPNGDFLVDFFEALSKESGIETKRMPEGVRIQRRGEYVFSFNFTSEEVDLEIPTKVQIVLGDQKIPPYGLLIWKENER, MGSDKIHHHHHHMLHATAWRSALFTPTENSATSRDRADCGGIGGMSAAILLSRQGIQVDLVELNPLWAPGGAGITISGPTLRGLREVGVADEVLASGGFWNAVDVCDANSNLTVTVPIAPAVGADELPGVAGIMRTTLAEILGRATRKADTNARLGVTFETLTQDAEGVEVSFNDGSRARYDLVIGADGINSPVRKYVKPEFPGPPFTGQRSWRAVVPRLQENSLMYMGKTTKAGLNPISQTECYLFVLDKREGMDFIAPEQWPMMLAELLEEFGGAVGEFRRGPLDGSLMNHRLLYRPLAGHMINGPWHKGRIVLLGDAVHATTPHLASRAGIAVEGAIVLSEELARRRSLEGAFIAYAGRHYDRARLVVSASGRLGEIERESGSREEHTRIMIETQQALRAPI, MGSDKIHHHHHHMLHQLTVLFKDHLSTDPTVYCTDKYTVYQLADGLRFGIENTILTPRELDLLNLLVERVVTSESDQIVTWRRRLEQPSSEEAHPFRMIHFLFEQLDVRTGEDLQQLLTSFFHPSSWIIPLTSNRLVVIEREDSVSENDLHDFFTALQSDFLMDGKVLIGQQRQSGDLAAQFRLEQAALRELPLLHIERFLPALMRLTLLSNEVRDDLIERFITPLERESRETIDAFCRANLNVSLTAKHLFLHRNSLQYRLDRLTEQTEIDIRSFEGAMFLYTLLLVA, MGSDKIHHHHHHMLICATCAVERDEPAPELCPICTDERQYVPEEGQKWLTLDGLAQQGQQTVLRENEPGLIGIRTEPKVGIGQTAQLVVTHEGSLLWDPVGYVDDSAVNAALERGPVLAIAASHPHMFGVQVEWSHRLGGVPVLVADADRRWLGRNDPVIEYWSGSHTIAEGLTLHQTGGHFPGSAVVHWAAGAAGRGVLLTGDSVYPNPDRRSISFMRSYPNHLPLSGAVALRIAAQLGELEFDRIYGNFNNVIASGAKAALHDSAQRHAAWARGDFDHLT, MGSDKIHHHHHHMLIFQYDFKIEFYNTVNSKNSIGGRLSGLRPRVVITTQNGAPDLNIFIQNTYSENNLITSKKAKLQIFNVPLDFSDFKTADIVKIYYKKFSDQQDYQFIMAGYLGAPVERIGGAENFSFECELYLLSRATFLERKFEYKNFKGSTIADAINYAFKDKAIFFMNELEKTKVIKESFACNSPKGLIEYLRRQGYVDAVIVDIGNPGQDVDLKFIFMNFEQFGAAEYKRLEDYGLLFVPQKDALGFKSGLSLYQAQVMFTHNIKIADNLSFKDRHGNTLDCKVKNTSARLSSTRECVLNLELYSKGEMYYAK, MGSDKIHHHHHHMLIISDAHANIHPLKYVIQREKFDKIVFCGDAVDYGPNPGETLDLLKENADVMVSGNHDYAAAYSVDCRCGEENHELSVFTRENITLKKLGKNDISFLRSLPNRMDMEIDGMKFQVMHGSPRDELYGYMYPWSVQDHLRSMLGSPLDPANYVVGHTHYQFLIRYAGNLVINPGSIGQPRDNPMPSYAVYDSSRNSVEFPRFDYDRSKLKEDIRSIISDQEILSGLYRLFSL, MGSDKIHHHHHHMLILRARWWTNMCLICQRIDLIKKEENPYFVKELETGYLVVGDHQYFEGYSLFLAKEHVSELHHLKKETRLRFLEEMSLVQEAVAKAFAAEKMNIELLGNGDAHLHWHLFPRRTGDMNGHGLKGRGPVWWVPFEEMTAETCQAKPDEIKRLVKRLSSEVDKLLEIKE, MGSDKIHHHHHHMLKEAISYSIADESVRIVQVTDPHLFADPEAQLLGVNTSKSLAAVLNTIRAVNYPAHLLLATGDLSQDYSPESYRQFVSAVAPLNLPCHYLPGNHDDPRIMFLHMQGERVFGQQRILVGKWQILMLDSTVRGKPGGHMGEGQFELIEQAIAAHPEHHTLLVMHHNPILVNCAWLDQHCMDNGAEFLRRVAQYPQVKALLWGHVHQQLDTYYDGPHRALQLMATPSTCIQFKPQSPYFALDGLQPGYRLLELKADGSISTNVYRVPGNLFSPDKDSSGY, MGSDKIHHHHHHMLKMPSLKAVKSFVAAAKYQSFTRAAEALCVTQAAISRQIRELEAYMGVELFKRVGRAVELTEAGSAFFDAAQLSFVNISQAAKRVGAYKAGKSEVTLCCSAAFAALWLSPKLPGFFNDNQDIDLNLISTQNFLSMEPGVTPDIFITKFSSVHSGYRSYPLFHDVIFPVCTPRYRDEHPELATLEGLRDSALLNLSPYGRAQVAEHIDWGVWLAFHDTDIEKRTHNRPHVFSANDYNVVINMTLANQGVALGWSHLVAESLEKGALVRPIQKEVVHKDSQHYLAFKVDRESDRGCCRLRDWLLSHFA
